Data as given in US20200369729A1 (CENTRE NATIONAL DE LA RECHERCHE SCIENTIFIQUE, published 2020).
*: point of attachment. Succinimide(1-Et,3-yl) = CCN1C(=O)CC(*)C1=O

B1: MUB40#1 (peptide)
peptide: Ac-C(Succinimide(1-Et,3-yl))TAEGIKKFEGDGYELFKDNFPAGEKFDNDDTNDQFYTVIF-NH2
modifications: not fully specified
notes: Unlabelled peptide as used in analytical gel filtration; trimer
B2: MUB40#2 (peptide)
peptide: Ac-C(Succinimide(1-Et,3-yl))GYTDETIPYSTAEGIKKFEGDGYELFKDNFPAGEKFDNDD-NH2
modifications: not fully specified
notes: Unlabelled peptide as used in analytical gel filtration; 'rather organized as tetramers'
B3: MUB40#3 (peptide)
peptide: Ac-C(Succinimide(1-Et,3-yl))DQMLRQDDLDGYTDETIPYSTAEGIKKFEGDGYELFKDNF-NH2
modifications: not fully specified
notes: as for B2
B4: MUB40#4 (peptide)
peptide: Ac-C(Succinimide(1-Et,3-yl))VHVQYIDGETDQMLRQDDLDGYTDETIPYSTAEGIKKFEG-NH2
modifications: not fully specified
notes: as for B2

Target: the molecule itself
Assay: self-association, analytical gel filtration in 20 mM phosphate buffer, 150 mM NaCl, pH 7.4
Experimental: (A) Schematic representation of the four 40-amino acid peptides named MUB₄₀#1, MUB₄₀#2, MUB₄₀#3, MUB₄₀#4, overlapping and covering the MUB₇₀ sequence (Coïc et al., 2012) (from C-terminal to N-terminal, see FIG. 2). (B) Human colonic mucus layer was labelled with the MUB₄₀#1-Cy5 fluorescent conjugate (1 μg/mL, magenta). (C) Colonic goblet cell granules were labelled with MUB₄₀#1-Cy5 (1 μg/mL, magenta), which was not the case for MUB₇₀-Cy5 (Coïc et al., 2012) or MUB₄₀#2-#4 peptides (data not shown). Actin (red); bar, 20 μm. (D) Elution profiles of MUB₄₀ peptides (#1-#4) were obtained by analytical gel filtration (absorbance at 280 nm). Samples were prepared at 10 μg/ml in the elution buffer (20 mM phosphate buffer, 150 mM NaCl, pH7.4). MUB₄₀#1 assembled as a trimer, similarly to MUB₇₀ (Coïc et al., 2012), not MUB₄₀#2, MUB₄₀#3, and MUB₄₀#4. […] (E) Far-UV Circular Dichroism spectra of the four MUB₄₀ peptides at 60 μM in 20 mM sodium phosphate buffer (pH 7.4) in the presence of 50 mM NaCl, showing a specific structural signal of MUB₄₀#1, compared to others peptides. (F) A human colonic explant was infected with Shigella flexneri pGFP (green) and labelled with MUB₄₀#1-Cy5 (1 μg/mL, magenta) and Dapi (blue) after fixation and permeabilization. The colonic mucus layer and infiltrated neutrophils (see (G)), were labelled with MUB₄₀#1-Cy5, as imaged by two-photon microscopy. Bar, 50 μm (G) The labelling of polymorphonuclear neutrophils with MUB₄₀#1-Cy5 (1 μg/mL, magenta) was confirmed on human purified neutrophils, showing a granular staining. Nucleus was stained with Dapi (blue). Bar, 5 μm.

Binding result, binds:
B1
B2
B3
B4
